The results in this text go back to patent US6869778 (Scripps Research, dated 2005).

The experiment has as its target plasminogen activator inhibitor, type 1 (PAI-1) (UniProt P05121 24-402). The experiment in a line: enzyme preincubated with PAI-1 under pseudo-first order conditions at 23 degrees Celsius; residual activity read in indirect chromogenic assay. The method, then: Second order rate constants for the inhibition of wild type human t-PA and variant t-PA were measured under pseudo-first order conditions as previously described. Briefly, enzyme and inhibitor were preincubated at 23 degrees Celsius for periods of time varying from 0–30 minutes. Following preincubation, the mixtures were diluted, and the residual enzymatic activity was measured in a standard indirect chromogenic assay. For each enzyme, the concentrations of enzyme and inhibitor and the times of preincubation were chosen to yield several data points for which the residual enzymatic activity varied between 20% and 80% of the initial activity. Data were analyzed by plotting the natural logarithm of the ratio (residual activity/initial activity) versus time of preincubation and measuring the resulting slopes. Division of this slope by –[I] yielded the second order rate constants shown.

Chain of plasminogen activator inhibitor, type 1 (PAI-1) (P05121 24-402 limits assumed): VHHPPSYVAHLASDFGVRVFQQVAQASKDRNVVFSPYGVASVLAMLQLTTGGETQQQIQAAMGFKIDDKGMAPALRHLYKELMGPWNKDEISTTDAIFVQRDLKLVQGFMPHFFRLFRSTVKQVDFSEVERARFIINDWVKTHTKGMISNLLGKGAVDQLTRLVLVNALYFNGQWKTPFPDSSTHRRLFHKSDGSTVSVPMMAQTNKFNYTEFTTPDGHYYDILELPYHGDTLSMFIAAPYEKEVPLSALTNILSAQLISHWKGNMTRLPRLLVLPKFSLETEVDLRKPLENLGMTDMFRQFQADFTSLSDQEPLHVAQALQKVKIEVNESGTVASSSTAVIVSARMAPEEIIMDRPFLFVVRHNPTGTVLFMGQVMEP

B1: t-PA/R275E, single-chain form (enzyme)
chain: SYQVICRDEKTQMIYQQHQSWLRPVLRSNRVEYCWCNSGRAQCHSVPVKSCSEPRCFNGGTCQQALYFSDFVCQCPEGFAGKCCEIDTRATCYEDQGISYRGTWSTAESGAECTNWNSSALAQKPYSGRRPDAIRLGLGNHNYCRNPDRDSKPWCYVFKAGKYSSEFCSTPACSEGNSDCYFGNGSAYRGTHSLTESGASCLPWNSMILIGKVYTAQNPSAQALGLGKHNYCRNPDGDAKPWCHVLKNRRLTWEYCDVPSCSTCGLRQYSQPQFEIKGGLFADIASHPWQAAIFAKHRRSPGERFLCGGILISSCWILSAAHCFQERFPPHHLTVILGRTYRVVPGEEEQKFEVEKYIVHKEFDDDTYDNDIALLQLKSDSSRCAQESSVVRTVCLPPADLQLPDWTECELSGYGKHEALSPFYSERLKEAHVRLYPSSRCTSQHLLNRTVTDNMLCAGDTRSGGPQANLHDACQGDSGGPLVCLNDGRMTLVGIISWGLGCGQKDVPGVYTKVTNYLDWIRDNMRP
notes: Noncleavable single-chain enzyme, secreted from COS-1 cells only as a single chain
Regarding B1, the “Second Order Rate Constant for inhibition by PAI-1” value was 1.8e+06 M⁻¹ s⁻¹.

B2: t-PA/R275E,H417E, single-chain form (enzyme)
chain: SYQVICRDEKTQMIYQQHQSWLRPVLRSNRVEYCWCNSGRAQCHSVPVKSCSEPRCFNGGTCQQALYFSDFVCQCPEGFAGKCCEIDTRATCYEDQGISYRGTWSTAESGAECTNWNSSALAQKPYSGRRPDAIRLGLGNHNYCRNPDRDSKPWCYVFKAGKYSSEFCSTPACSEGNSDCYFGNGSAYRGTHSLTESGASCLPWNSMILIGKVYTAQNPSAQALGLGKHNYCRNPDGDAKPWCHVLKNRRLTWEYCDVPSCSTCGLRQYSQPQFEIKGGLFADIASHPWQAAIFAKHRRSPGERFLCGGILISSCWILSAAHCFQERFPPHHLTVILGRTYRVVPGEEEQKFEVEKYIVHKEFDDDTYDNDIALLQLKSDSSRCAQESSVVRTVCLPPADLQLPDWTECELSGYGKEEALSPFYSERLKEAHVRLYPSSRCTSQHLLNRTVTDNMLCAGDTRSGGPQANLHDACQGDSGGPLVCLNDGRMTLVGIISWGLGCGQKDVPGVYTKVTNYLDWIRDNMRP
As to B2, the “Second Order Rate Constant for inhibition by PAI-1” value stood at 210000 M⁻¹ s⁻¹.

B3: t-PA/R275E,H417D, single-chain form (enzyme)
chain: SYQVICRDEKTQMIYQQHQSWLRPVLRSNRVEYCWCNSGRAQCHSVPVKSCSEPRCFNGGTCQQALYFSDFVCQCPEGFAGKCCEIDTRATCYEDQGISYRGTWSTAESGAECTNWNSSALAQKPYSGRRPDAIRLGLGNHNYCRNPDRDSKPWCYVFKAGKYSSEFCSTPACSEGNSDCYFGNGSAYRGTHSLTESGASCLPWNSMILIGKVYTAQNPSAQALGLGKHNYCRNPDGDAKPWCHVLKNRRLTWEYCDVPSCSTCGLRQYSQPQFEIKGGLFADIASHPWQAAIFAKHRRSPGERFLCGGILISSCWILSAAHCFQERFPPHHLTVILGRTYRVVPGEEEQKFEVEKYIVHKEFDDDTYDNDIALLQLKSDSSRCAQESSVVRTVCLPPADLQLPDWTECELSGYGKDEALSPFYSERLKEAHVRLYPSSRCTSQHLLNRTVTDNMLCAGDTRSGGPQANLHDACQGDSGGPLVCLNDGRMTLVGIISWGLGCGQKDVPGVYTKVTNYLDWIRDNMRP
Turning to B3, the “Second Order Rate Constant for inhibition by PAI-1” value turned out to be 150000 M⁻¹ s⁻¹.
